PMC11014249
Residue numbers refer to the chain shown, from its start. Like-named read-outs stand apart in the source and are kept apart here.

What was measured:
[1] = molecular target: RccR from Pseudomonas aeruginosa (P. aeruginosa); test: SEC
[2] = molecular target: T1, RccR (PaRccR) (Pseudomonas aeruginosa, UniProt A0A071KWR3 1-293); test: EMSA
T1 sequence: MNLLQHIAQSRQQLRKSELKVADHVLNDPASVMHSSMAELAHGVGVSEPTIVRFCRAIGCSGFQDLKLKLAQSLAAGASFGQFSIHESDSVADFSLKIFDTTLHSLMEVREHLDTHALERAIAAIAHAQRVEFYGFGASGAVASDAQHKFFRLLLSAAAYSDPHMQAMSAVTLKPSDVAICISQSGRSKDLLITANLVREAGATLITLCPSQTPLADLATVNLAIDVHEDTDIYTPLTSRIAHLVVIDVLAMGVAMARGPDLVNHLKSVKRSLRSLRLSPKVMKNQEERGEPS

[3] = molecular target: T2, RccR H148A (Pseudomonas aeruginosa, UniProt A0A071KWR3 1-293, H148A); test: EMSA
T2 sequence: T1 sequence with H148A

[4] = molecular target: T3, RccR K270A (Pseudomonas aeruginosa, UniProt A0A071KWR3 1-293, K270A); test: EMSA
T3 sequence: T1 sequence with K270A

[5] = molecular target: T4, RccR SSSS (Pseudomonas aeruginosa, UniProt A0A071KWR3 1-293, S139A;S183A;S185A;S188A); test: EMSA
T4 sequence: T1 sequence with S139A, S183A, S185A, S188A

[6] = molecular target: T5, RccR H164A (Pseudomonas aeruginosa, UniProt A0A071KWR3 1-293, H164A); test: EMSA
T5 sequence: T1 sequence with H164A

[7] = molecular target: T6, RccR R152A (Pseudomonas aeruginosa, UniProt A0A071KWR3 1-293, R152A); test: EMSA
T6 sequence: T1 sequence with R152A

[8] = molecular target: T7, RccR T231A (Pseudomonas aeruginosa, UniProt A0A071KWR3 1-293, T231A); test: EMSA
T7 sequence: T1 sequence with T231A

[9] = molecular target: T8, RccR ΔSLR (Pseudomonas aeruginosa, UniProt A0A071KWR3 1-274+278-293, internal_change); test: EMSA
T8 sequence: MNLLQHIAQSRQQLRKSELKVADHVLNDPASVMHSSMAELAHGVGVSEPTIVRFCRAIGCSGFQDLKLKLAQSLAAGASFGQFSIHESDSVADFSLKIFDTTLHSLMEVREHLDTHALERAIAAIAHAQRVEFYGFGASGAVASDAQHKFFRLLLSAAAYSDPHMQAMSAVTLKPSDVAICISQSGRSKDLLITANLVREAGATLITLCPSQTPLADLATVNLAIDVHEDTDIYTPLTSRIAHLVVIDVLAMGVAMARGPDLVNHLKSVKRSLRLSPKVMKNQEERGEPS

[10] = molecular target: T9, RccR E200A (Pseudomonas aeruginosa, UniProt A0A071KWR3 1-293, E200A); test: EMSA
T9 sequence: T1 sequence with E200A

[11] = molecular target: T9, RccR E200A; test: EMSA; remark: listed apart in the source

RccR from Pseudomonas aeruginosa (natural protein)
stoichiometry N [1]: 4

B1: Variant1 (dsDNA)
DNA 1: ATCTGTAGTGGGACTACAAG
DNA 2: CTTGTAGTCCCACTACAGAT
binding result [2]: binds

B2: PaceE (dsDNA)
DNA 1: ATCTGTAGTAAAACTACAAG
DNA 2: CTTGTAGTTTTACTACAGAT
binding result [3]: binds | binding result [4]: binds | binding result [5]: binds | binding result [6]: binds | binding result [7]: binds | binding result [8]: binds | binding result [9]: binds | binding result [10]: binds

B3: PaceA (dsDNA)
DNA 1: TCGTGTAGTAGTCTTGAAAAAACACTACAAAA
DNA 2: TTTTGTAGTGTTTTTTCAAGACTACTACACGA
binding result [11]: binds
